The text below walks through data of patent US20220127355A1 (INTEGRAL MOLECULAR, published 2022).

Experiment [1] has as its target T1, Claudin 6 (human) (human, UniProt P56747 1-220).
T1 construct: Expressed on transfected HEK-293T cells or naturally on PA-1 cells for flow cytometry; For the Octet KD values it was the intact protein embedded in virus-like particles (lipoparticles); also called hsCLDN6; CLDN6
T1 chain: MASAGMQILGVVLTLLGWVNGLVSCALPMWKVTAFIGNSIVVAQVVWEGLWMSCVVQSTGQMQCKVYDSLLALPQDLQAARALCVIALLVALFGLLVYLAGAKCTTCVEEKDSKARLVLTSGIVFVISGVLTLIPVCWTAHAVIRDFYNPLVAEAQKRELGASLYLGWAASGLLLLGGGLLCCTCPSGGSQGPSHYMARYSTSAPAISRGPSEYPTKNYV
Kind of experiment: binding assay of the 13th table, method not described.

Another experiment deals with T2, Claudin 9 (UniProt O95484 1-217).
T2 construct: Octet KD values: intact claudin protein embedded in virus-like particles (lipoparticles); also called CLDN9
T2 sequence (looked up): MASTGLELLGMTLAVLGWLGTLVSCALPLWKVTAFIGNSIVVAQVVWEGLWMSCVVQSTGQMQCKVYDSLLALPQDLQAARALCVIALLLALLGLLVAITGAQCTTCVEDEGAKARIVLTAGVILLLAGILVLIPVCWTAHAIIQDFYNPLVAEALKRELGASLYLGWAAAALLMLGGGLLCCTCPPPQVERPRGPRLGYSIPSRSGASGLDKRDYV
Kind of experiment: biosensor (Forte Octet), intact claudin in virus-like particles (lipoparticles). Here is the method: Affinity of various antibodies against CLDN6 as compared to CLDN9, CLDN3, and CLDN4 was measured using a biosensor. Biosensor affinity measurement of the various antibodies against the proteins was determined using a Forte Octet, which was used for biosensor measurements, using intact claudin proteins embedded in virus-like particles (lipoparticles). The KD for different antibodies is shown below.
A general note: In BLI a coated tip is dipped into the sample, and binding shifts an interference pattern.

For experiment [2], the target named is T1, Claudin 6 (human). The experiment can be described thus: flow cytometry, 66 nM MAb on HEK-293T cells expressing claudin6. As to the method:
Expression and Binding of claudin6 MAbs. Claudin 6 MAbs produced using their natural light chain, or produced using a different light chain. Yield represents the preparation of the purified MAb and ug of protein resulting from the preparation. Binding represents 66 nM of the indicated MAb binding to HEK-293T cells expressing the target claudin6. The Controls represents the same MAbs staining HEK-293T cells not transfectedwith claudin6. Staining was detected by flow cytometry (geometric mean fluorescence). N/A, not available.
On the technique in general: Flow cytometry measures light scatter and fluorescence of single cells or particles in a stream.

B1: IM-35-N1F09-1HA (antibody, V domains shown)
VH: EVQLLESGGGLVQPGGSLRLSCAASGFTFSSYGMSWVRQAPGKGLEWVAGIGSSGIYTHYADSVKGRFTISRDNSKNTLYLQMNSLRAEDTAVYYCAKSPGDSDWCGWAGYGIYSCRVAGFIDAWGQGTLVTVSS
VL: SYELTQPPSVSVSPGQTARITCSGGYNGHYGWYQQKPGQAPVLVIYGTNKRPSGIPERFSGSSSGTTVTLTISGVQAEDEADYYCGGYDSSAGIFGGGTKLTVL
For B1, the 50% effective concentration (EC50) (in general, the concentration that produces a half-maximal response) with Claudin 6 (human) [1] is less than 4 nM.

B2: IM-35-N2H07-1HA (antibody, V domains shown)
VH: EVQLLESGGGLVQPGGSLRLSCAASGFTFSGYAMSWVRQAPGKGLEWVAGIYSSGSYTFYADSVKGRFTISRDNSKNTLYLQMNSLRAEDTAVYYCAKGTGYCDWSGWCYSGAANIDAWGQGTLVTVSS
VL: SYELTQPPSVSVSPGQTARITCSGGSGSYGYYGWYQQKPGQAPVLVIYGTNKRPSGIPERFSGSSSGTTVTLTISGVQAEDEADYYCGSEDSSSGAGIFGGGTKLTVL
In the case of B2, the half-maximal effective concentration (EC50) in the experiment with Claudin 6 (human) [1] was less than 4 nM.

B3: IM172 (antibody, V domains shown)
VH: AVTLDESGGGLQTPGGALSLVCKGSGFSISSYTMQWVRQAPGKGLEWVAGIYSGSRTYYGAAVQGRATISRDNGQSTVRLQLNNLRAEDTGTYYCAKSSYCTAWTGCDVYAGGSIDAWGHGTEVIVSS
VL: ALTQPSSVSATPGGTVEITCSGDSSDDGSYYYGWYQQKSPGSAPVTVIYSNDKRPSSIPSRFSGSASGSTATLTITGVQADDEAVYFCGSYDSSTGIFGAGTTLTVL
notes: Detected with anti-human IgG Fc secondary
As for B3, in the experiment with Claudin 9, the dissociation constant (Kd) (in general, the constant that tells how readily two partners part at equilibrium) was 81 nM.

B4: IM-271-1HBF (antibody, V domains shown)
VH: EVQLLESGGGLVQPGGSLRLSCAASGFTFSSYAMNWVRQAPGKGLEWVAGISSSGRYTGYADSVKGRFTISRDNSKNTLYLQMNSLRAEDTAVYYCAKSVGSGVSWSGYVATSIDAWGQGTLVTVSS
VL: SYELTQPPSVSVSPGQTARITCSAGSGLYGWYQQKPGQAPVLVIYGTNKRPSGIPERFSGSSSGTTVTLTISGVQAEDEADYYCGSADSSTNAGIFGGGTKLTVL
notes: also called CH-HAMF5-1HBF
Consider B4, for which the 50% effective concentration (EC50) with Claudin 6 (human) [1] was less than 4 nM.

B5: IM180 (antibody, V domains shown)
VH: EVQLLESGGGLVQPGGSLRLSCAASGFDFSSYAMNWVRQAPGKGLEWVAGIGSTGSSTGYADSVKGRFTISRDNSKNTLYLQMNSLRAEDTAVYYCAKSVGNGNSWSGYIATSIDAWGQGTLVTVSS
VL: SYELTQPPSVSVSPGQTARITCSGGSSGYGWYQQKPGQAPVLVIYSNDKRPSGIPERFSGSSSGTTVTLTISGVQAEDEADYYCGSTDNSYVGIFGGGTKLTVL
notes: Produced with its natural light chain
For B5, the “Binding (geometric mean fluorescence)” value with Claudin 6 (human) [2] was 46900 geometric mean fluorescence.

B6: IM180 w/ F10h cLC (antibody, V domains shown)
VH: EVQLLESGGGLVQPGGSLRLSCAASGFDFSSYAMNWVRQAPGKGLEWVAGIGSTGSSTGYADSVKGRFTISRDNSKNTLYLQMNSLRAEDTAVYYCAKSVGNGNSWSGYIATSIDAWGQGTLVTVSS
VL: SYELTQPPSVSVSPGQTARITCSGGYNGHYGWYQQKPGQAPVLVIYSNNQRPSGIPERFSGSSSGTTVTLTISGVQAEDEADYYCGGYDSSAGIFGGGTKLTVL
notes: IM180 heavy chain paired with the common light chain F10h
Turning to B6, the “Binding (geometric mean fluorescence)” value with Claudin 6 (human) [2] was 10100 geometric mean fluorescence.

B7: IM-271-1HGT (antibody, V domains shown)
VH: EVQLLESGGGLVQPGGSLRLSCAASGFTFSSYAMNWVRQAPGKGLEWVAGISSSGRYTGYADSVKGRFTISRDNSKNTLYLQMNSLRAEDTAVYYCAKSVGSGVSWSGYVATSLDVWGQGTLVTVSS
VL: SYELTQPPSVSVSPGQTARITCSAGSGLYGWYQQKPGQAPVLVIYGTNKRPSGIPERFSGSSSGTTVTLTISGVQAEDEADYYCGSNDASTNAGIFGGGTKLTVL
notes: also called CH-HAMF5-1HGT
B7: the concentration giving a half-maximal response (EC50) in the experiment with Claudin 6 (human) [1] is less than 4 nM.

B8: IM-271-1HFJ (antibody, V domains shown)
VH: EVQLLESGGGLVQPGGSLRLSCAASGFTFSSYAMNWVRQAPGKGLEWVAGISSSGRYTGYADSVKGRFTISRDNSKNTLYLQMNSLRAEDTAVYYCAKSMGSGVSWSGYVATSIDVWGQGTLVTVSS
VL: SYELTQPPSVSVSPGQTARITCSAGSGLYGWYQQKPGQAPVLVIYGTNKRPSGIPERFSGSSSGTTVTLTISGVQAEDEADYYCGSADSSTNAGIFGGGTKLTVL
notes: also called CH-HAMF5-1HFJ
In the case of B8, the EC50 with Claudin 6 (human) [1] is less than 4 nM.

B9: IM-271-1HHP (antibody, V domains shown)
VH: EVQLLESGGGLVQPGGSLRLSCAASGFTFSSYAMNWVRQAPGKGLEWVAGISSSGRYTGYADSVKGRFTISRDNSKNTLYLQMNSLRAEDTAVYYCAKSVGSGVSWSGYVATSLDVWGQGTLVTVSS
VL: SYELTQPPSVSVSPGQTARITCSGGSGSYGWYQQKPGQAPVLVIYGTYKRPSGIPERFSGSSSGTTVTLTISGVQAEDEADYYCGSADSSTNAGIFGGGTKLTVL
notes: also called CH-HAMF5-1HHP
In the case of B9, the EC50 with Claudin 6 (human) [1] was less than 4 nM.

B10: IM-271-1HBG (antibody, V domains shown)
VH: EVQLLESGGGLVQPGGSLRLSCAASGFTFSSYAMNWVRQAPGKGLEWVAGISSSGRYTGYADSVKGRFTISRDNSKNTLYLQMNSLRAEDTAVYYCAKSMGSGVSWSGYVATSIDAWGQGTLVTVSS
VL: SYELTQPPSVSVSPGQTARITCSAGSGLYGWYQQKPGQAPVLVIYGTNKRPSGIPERFSGSSSGTTVTLTISGVQAEDEADYYCGSADSSTNAGIFGGGTKLTVL
notes: also called CH-HAMF5-1HBG
In the experiment with Claudin 6 (human) [1], B10 yielded a half-maximal effective concentration (EC50) of less than 4 nM.

B11: IM-271-1HEP (antibody, V domains shown)
VH: EVQLLESGGGLVQPGGSLRLSCAASGFTFSSYAMNWVRQAPGKGLEWVAGISSSGRYTGYADSVKGRFTISRDNSKNTLYLQMNSLRAEDTAVYYCAKSVGSGVSWSGYVATSLDAWGQGTLVTVSS
VL: SYELTQPPSVSVSPGQTARITCSAGSGLYGWYQQKPGQAPVLVIYGTNKRPSGIPERFSGSSSGTTVTLTISGVQAEDEADYYCGSADSSTNAGIFGGGTKLTVL
notes: T0003 prints the label CH-HAMF5-MEP; Tied by the suffix only; also called CH-HAMF5-1HEP; CH-HAMF5-MEP
B11: the EC50 in the experiment with Claudin 6 (human) [1] was less than 4 nM.

B12: IM-271-1HAQ (antibody, V domains shown)
VH: EVQLLESGGGLVQPGGSLRLSCAASGFTFSSYAMSWVRQAPGKGLEWVAGISSSGRYTGYADSVKGRFTISRDNSKNTLYLQMNSLRAEDTAVYYCAKSVGNGNSWSGYVATSIDAWGQGTLVTVSS
VL: SYELTQPPSVSVSPGQTARITCSGGSGSYGWYQQKPGQAPVLVIYGTNKRPSGIPERFSGSSSGTTVTLTISGVQAEDEADYYCGSADSSTNAGIFGGGTKLTVL
notes: also called CH-HAMF5-1HAQ
In turn, B12 returned a concentration giving a half-maximal response (EC50) with Claudin 6 (human) [1] of less than 4 nM.

B13: IM271 w/ F10h cLC (antibody, V domains shown)
VH: EVQLLESGGGLVQPGGSLRLSCAASGFTFSSYAMSWVRQAPGKGLEWVAGISSSGRYTGYADSVKGRFTISRDNSKNTLYLQMNSLRAEDTAVYYCAKSVGNGNSWSGYIATSIDAWGQGTLVTVSS
VL: SYELTQPPSVSVSPGQTARITCSGGYNGHYGWYQQKPGQAPVLVIYSNNQRPSGIPERFSGSSSGTTVTLTISGVQAEDEADYYCGGYDSSAGIFGGGTKLTVL
notes: IM271 heavy chain paired with the common light chain F10h
For the molecule B13, the “Binding (geometric mean fluorescence)” value in the experiment with Claudin 6 (human) [2] was 160000 geometric mean fluorescence.

B14: IM-271-1HFB (antibody, V domains shown)
VH: EVQLLESGGGLVQPGGSLRLSCAASGFTFSSYAMNWVRQAPGKGLEWVAGISSSGRYTGYADSVKGRFTISRDNSKNTLYLQMNSLRAEDTAVYYCAKSMGSGVSWSGYVATSIDAWGQGTLVTVSS
VL: SYELTQPPSVSVSPGQTARITCSGGSGSYGWYQQKPGQAPVLVIYGTYKRPSGIPERFSGSSSGTTVTLTISGVQAEDEADYYCGSADSSTNAGIFGGGTKLTVL
notes: also called CH-HAMF5-1HFB
Consider B14, for which, in the experiment with Claudin 6 (human) [1], the EC50 was less than 4 nM.

B15: IM-271-1HHR (antibody, V domains shown)
VH: EVQLLESGGGLVQPGGSLRLSCAASGFTFSSYAMNWVRQAPGKGLEWVAGISSSGRYTGYADSVKGRFTISRDNSKNTLYLQMNSLRAEDTAVYYCAKSMGSGVSWSGYVATSLDVWGQGTLVTVSS
VL: SYELTQPPSVSVSPGQTARITCSGGSGSYGWYQQKPGQAPVLVIYGTYKRPSGIPERFSGSSSGTTVTLTISGVQAEDEADYYCGSADSSTNAGIFGGGTKLTVL
notes: also called CH-HAMF5-1HHR
Regarding B15, in the experiment with Claudin 6 (human) [1], the EC50 is less than 4 nM.
